Source: paper PMC4895224

Molecular target: 2-Cysteine peroxiredoxin (BxPrx) of Bursaphelenchus xylophilus (Bursaphelenchus xylophilus (endogenous in the nematode))
Test: SDS-PAGE and immunoblot of the inter-molecular dimer; nematodes incubated in 0, 1 and 5 mM H2O2 for 5 min, harvested in 20% TCA, resuspended in SDS-PAGE loading buffer, 12% SDS-PAGE, Western blot with anti-BxPrx serum; 80 ug protein extract per lane

stoichiometry N: 2
Substance: 2-Cysteine peroxiredoxin (BxPrx) of Bursaphelenchus xylophilus (natural protein)
